One molecule from EP1053001B1 can be followed below.

This assay concerns the target T1, calcitonin receptors (human T47D / MCF7 breast carcinoma cells) (human), P30988.
T1 chain: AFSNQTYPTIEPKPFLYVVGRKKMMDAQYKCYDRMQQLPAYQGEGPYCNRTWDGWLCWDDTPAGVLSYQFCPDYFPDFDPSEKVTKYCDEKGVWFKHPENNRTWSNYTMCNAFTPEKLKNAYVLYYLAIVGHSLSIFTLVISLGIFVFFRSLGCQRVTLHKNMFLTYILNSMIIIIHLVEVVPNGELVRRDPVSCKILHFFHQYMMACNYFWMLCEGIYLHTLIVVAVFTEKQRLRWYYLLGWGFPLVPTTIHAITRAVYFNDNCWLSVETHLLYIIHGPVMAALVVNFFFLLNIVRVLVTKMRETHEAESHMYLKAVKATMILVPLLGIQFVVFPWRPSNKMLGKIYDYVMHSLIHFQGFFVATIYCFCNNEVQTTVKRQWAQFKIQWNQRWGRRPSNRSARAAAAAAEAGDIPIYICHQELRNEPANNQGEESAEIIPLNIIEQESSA
Put plainly: radioligand competition vs 125I-salmon calcitonin, human T47D cell membranes.

Non-standard residues stand in square brackets, D forms with d. No end group written: not given here. *: point of attachment. Aib = CC(C)(N)C(=O)O; For = O=C*

In the case of VL[Aib]K(For)LSQEL[Aib]K(For)LQTYPRTNTGSNTY-NH2 [Compound 8], the IC50 is 93 nM.

What is called IC50 is the concentration that inhibits the measured activity by half.
